Data reported in patent KR20170021349A, “다양한 질병의 치료를 위한 jnk 신호 전달 경로의 세포 투과성 펩타이드 억제자의 새로운 용도” (자이겐 인플라메이션 리미티드, priority 2014, dated 2017).

Columns and labels:
[1] = Phase II trial, post-surgery intraocular inflammation, vs dexamethasone eye drops; format: in vivo, human
[2] = system: rat pancreatic islets; assay: Rat islets, 4 h hypoxia; format: cell-based; details: 100 μM
[3] = system: Mapk14f/f and Mapk14Δli* mice; assay: DEN-induced hepatocyte proliferation (Ki67) in Mapk14-deficient mice; format: in vivo, mouse; details: 20 mg/kg i.p. before DEN, 48 h
[4] = system: Brown Norway rats; assay: STZ diabetic retinopathy, repeated subconjunctival administration; format: in vivo, rat
[5] = Previous open-label dose-escalation trial in post-surgery/post-trauma intraocular inflammation; format: in vivo, human; details: 45, 90, 450, 900 μg subconj., 20 patients
[6] = system: Sprague-Dawley albino rats; assay: Light-induced photoreceptor damage (AMD model), ERG and ONL thickness; format: in vivo, rat
[7] = system: PC-3 tumours in Balb/c nude mice; assay: Subcutaneous PC-3 human prostate tumour; format: in vivo, mouse; details: 0.1 and 1 mg/kg/inj Q4Dx4, dose-dependent, more marked at 1 mg/kg
[8] = Phase I single ascending i.v. dose study, healthy male volunteers; format: in vivo, human

Substance: NH2-DQSRPVQPFLNLTTPRKPRPPRRRQRRKKRG-COOH (H-DQSRPVQPFLNLTTPRKPRPPRRRQRRKKRG-OH; also: D-amino acids (positions not given here)) [XG-102]
- odds of cleared ocular inflammation vs usual treatment group ([1]; 90 μg, FAS, day 28): 1.24
- odds of cleared ocular inflammation vs usual treatment group ([1]; 90 μg, PP, day 7): 0.56
- odds of cleared ocular inflammation vs usual treatment group ([1]; 90 μg, PP, day 14): 0.97
- odds of cleared ocular inflammation vs usual treatment group ([1]; 90 μg, PP, day 28): 1.45
- patients with rescue medication introduced ([1]; 90 μg, p=0.013 vs dexamethasone): 21.3%
- AEs leading to interruption of study treatment, events (%) ([1]; 900 μg): 8 (11.6%)
- mild AEs, number of events (%) ([1]; 900 μg): 49 (71.0%)
- moderate AEs, number of events (%) ([1]; 900 μg): 12 (17.4%)
- patients with an AE within 24 h of administration ([1]; 900 μg): 27%
- patients with intraocular pressure increased ([1]; 900 μg): 10%
- severe AEs, number of events (%) ([1]; 900 μg): 8 (11.6%)
- SOC eye disorders, patients ([1]; 900 μg (24 patients)): 50%
- premature withdrawal of study eye drops, patients (%) ([1]; 900 μg (N=48)): 8 (16.7%)
- difference in anterior chamber cell grade vs dexamethasone, day 28 ([1]; 900 μg single subconj. inj., PP, 95% CI -0.350-0.242, non-inferior p<0.001): -0.054
- patients with an adverse event ([1]; 900 μg, 32/48): 67%
- difference in anterior chamber cell grade vs dexamethasone, day 28 ([1]; 900 μg, FAS, 95% CI -0.301-0.238, p<0.001): -0.032
- odds of cleared ocular inflammation vs usual treatment group ([1]; 900 μg, FAS, day 7): 0.76
- odds of cleared ocular inflammation vs usual treatment group ([1]; 900 μg, FAS, day 14): 1.25
- odds of cleared ocular inflammation vs usual treatment group ([1]; 900 μg, FAS, day 28): 1.13
- odds of cleared ocular inflammation vs usual treatment group ([1]; 900 μg, PP, day 7): 0.84
- odds of cleared ocular inflammation vs usual treatment group ([1]; 900 μg, PP, day 14): 1.12
- odds of cleared ocular inflammation vs usual treatment group ([1]; 900 μg, PP, day 28): 1.26
- patients with rescue medication introduced ([1]; 900 μg, not significant vs dexamethasone): 14.6%
- hypoxia-induced phosphorylation of JNK and JUN ([2]; 1 h pre-treatment + 4 h hypoxia): 인산화를 억제하지 않았다
- islet apoptosis and necrosis ([2]; normoxia and hypoxia): 감소되었다
- hyperproliferation of Mapk14-/- hepatocytes (Ki67) [3]: 되돌린다
- decline of contrast threshold ([4]; 200 μg/eye): 현저하게 지연되었다
- ocular irritation (chemosis, hyperemia, discharge) ([4]; 2, 20, 200 μg/eye every 2 weeks subconj.): 안구 자극이 관찰되지 않았다
- retinal cytokine levels (all 23) ([4]; 20 or 200 μg/eye): BLQ
- progression of visual acuity loss (spatial frequency threshold) ([4]; 20 or 200 μg/eye, days 57-99): 현저하게 지연시켰다
- contrast threshold vs vehicle ([4]; all doses, day 99): 현저하게 높은 대조 역치 값을 가졌으며
- visual acuity score vs vehicle-treated STZ group ([4]; all doses, day 113 (significant at 2 and 200 μg/eye)): 높은 시력 점수를 보였고
- safety and tolerability [5]: 안정하고 내약성이 우수하다
- b-wave recovery (% of baseline) ([6]; 1.5 μg/eye IVT, day 9): 55.3%
- a-wave recovery (% of baseline) ([6]; 1.5 μg/eye IVT, day 16): 47.5%
- b-wave recovery (% of baseline) ([6]; 1.5 μg/eye IVT, day 16): 61.7%
- a-wave recovery (% of baseline) ([6]; 1.5 μg/eye IVT, day 23): 48.3%
- b-wave recovery (% of baseline) ([6]; 1.5 μg/eye IVT, day 23): 73.5%
- ONL thickness loss (% vs non-induced control eyes) ([6]; 1.5 μg/eye ivt): 39%
- ONL thickness ([6]; 1.5 μg/eye ivt, day 23, p<0.05 vs vehicle): 24.89 ± 4.01 μm
- b-wave recovery (% of baseline) ([6]; 15 μg/eye IVT, day 9): 60.6%
- a-wave recovery (% of baseline) ([6]; 15 μg/eye IVT, day 16): 51.1%
- b-wave recovery (% of baseline) ([6]; 15 μg/eye IVT, day 16): 62.3%
- a-wave recovery (% of baseline) ([6]; 15 μg/eye IVT, day 23): 41.8%
- b-wave recovery (% of baseline) ([6]; 15 μg/eye IVT, day 23): 56.5%
- ONL thickness loss (% vs non-induced control eyes) ([6]; 15 μg/eye ivt): 40%
- ONL thickness ([6]; 15 μg/eye ivt, day 23, p<0.05 vs vehicle): 24.42 ± 5.99 μm
- a-wave recovery (% of baseline) ([6]; 150 μg/eye IVT, day 9 (vehicle 5.7)): 23.6%
- b-wave recovery (% of baseline) ([6]; 150 μg/eye IVT, day 9 (vehicle 15)): 31.9%
- a-wave recovery (% of baseline) ([6]; 150 μg/eye IVT, day 16 (vehicle 13.2)): 24.1%
- b-wave recovery (% of baseline) ([6]; 150 μg/eye IVT, day 16 (vehicle 24.8)): 38.9%
- a-wave recovery (% of baseline) ([6]; 150 μg/eye IVT, day 23 (vehicle 22.5)): 23.7%
- b-wave recovery (% of baseline) ([6]; 150 μg/eye IVT, day 23 (vehicle 30.6)): 37.1%
- ONL thickness loss (% vs non-induced control eyes) ([6]; 150 μg/eye ivt): 53%
- ONL thickness ([6]; 150 μg/eye ivt, day 23): 18.95 ± 9.17 μm
- mean tumour volume over time [7]: 종양 부피의 감소
- time at which plasma concentration fell below LLOQ ([8]; 10 μg/kg i.v. infusion): ≤ 2 시간
- time at which plasma concentration fell below LLOQ ([8]; 40 μg/kg, after start of infusion): 3 시간
- time at which plasma concentration fell below LLOQ ([8]; 80 μg/kg, after start of infusion): ≤ 7 시간
- inter-subject variability of PK parameters (CV% of geometric mean) ([8]; 80 μg/kg, except MRT): 29-44%
- increase of AUC0-last with dose ([8]; 10-80 μg/kg): 선형 이상의 비율로 증가했다
- inter-subject variability of PK parameters (CV% of geometric mean) ([8]; 10 and 40 μg/kg, most parameters): 15-30%
- increase of Cmax with dose ([8]; 40 to 80 μg/kg): 선형 이상의 비율로 증가하는 것으로 나타났다
- safety and tolerability ([8]; single i.v. 10, 40 or 80 μg/kg): 안전하고 내약성이 우수했다
